Assay results from paper PMC6403371.

What was measured:
[1] = target: cHSP27 C137S (human) (UniProt P04792); assay: NMR titration; intensities of the G116 monomer and dimer resonances against protein concentration, pH 7, 1 bar; dimer to monomers
[2] = target: cHSP27 C137S (human) (UniProt P04792); assay: high-pressure NMR (1H-15N HSQC); 200 μM [U-15N]-C137S in baroresistant buffer (100 mM Tris-HCl, 100 mM phosphate) pH 7, 25 °C, 14.1 T, 1 to 2500 bar; three-state model (dimer, monomer, unfolded); similar pressure titrations on oxidised cHSP27
[3] = target: cHSP27 C137S (human) (UniProt P04792); assay: NMR (1H-15N HSQC, G116 monomer and dimer peak intensities) against pH; [U-15N]-C137S at 250 μM in NMR buffer at pH 7, 25 °C, and separate samples at pH 6.5, 6.0 and 5.0, 1 bar; similar pH titrations on oxidised cHSP27; the rows are for pH 5 / low pH; dimer to monomers
[4] = target: cHSP27 C137S (human) (UniProt P04792); assay: 15N CPMG relaxation dispersion NMR; cHSP27 (1 mM, reduced with 5 mM BME, 14.1 T only) or C137S (1 mM and 0.3 mM; 25, 30, 35 °C; 11.7 and 14.1 T) in NMR buffer pH 7; global two-state fit; dimer to monomers
[5] = target: cHSP27(H124K/C137S) (human) (UniProt P04792); assay: NMR titration; intensities of the G116 monomer and dimer resonances against protein concentration, pH 7, 1 bar; dimer to monomers

cHSP27 C137S (from UniProt P04792 84-171) (domain or fragment)
Kd [1]: 0.7 µM | fold increase of Kd at 1600 bar (against 1 bar) [2]: 10 fold | Kd [3]: 5000 µM | Kd [4]: 0.5 µM | population of the monomer at 1 mM [4]: 1.5%

cHSP27(H124K/C137S) (from UniProt P04792 84-171) (domain or fragment)
Kd [5]: 1100 µM
